# T1: human recombinant HMGB1 protein (Homo sapiens, UniProt P09429)
# T1 construct: purchased Abcam
# T1 sequence (P09429 1-215): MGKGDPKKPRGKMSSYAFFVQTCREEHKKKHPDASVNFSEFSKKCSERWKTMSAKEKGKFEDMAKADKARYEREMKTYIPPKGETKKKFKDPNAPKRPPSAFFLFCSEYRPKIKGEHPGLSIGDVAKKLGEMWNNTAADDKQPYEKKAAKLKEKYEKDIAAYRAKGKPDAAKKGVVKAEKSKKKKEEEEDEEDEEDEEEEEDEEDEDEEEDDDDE
# B1: Lf-GL (1:4): lactoferrin-glycyrrhizin conjugate, ratio 1:4 (conjugate, UniProt P24627 20-708, looked up)
# Lactotransferrin: APRKNVRWCTISQPEWFKCRRWQWRMKKLGAPSITCVRRAFALECIRAIAEKKADAVTLDGGMVFEAGRDPYKLRPVAAEIYGTKESPQTHYYAVAVVKKGSNFQLDQLQGRKSCHTGLGRSAGWIIPMGILRPYLSWTESLEPLQGAVAKFFSASCVPCIDRQAYPNLCQLCKGEGENQCACSSREPYFGYSGAFKCLQDGAGDVAFVKETTVFENLPEKADRDQYELLCLNNSRAPVDAFKECHLAQVPSHAVVARSVDGKEDLIWKLLSKAQEKFGKNKSRSFQLFGSPPGQRDLLFKDSALGFLRIPSKVDSALYLGSRYLTTLKNLRETAEEVKARYTRVVWCAVGPEEQKKCQQWSQQSGQNVTCATASTTDDCIVLVLKGEADALNLDGGYIYTAGKCGLVPVLAENRKSSKHSSLDCVLRPTEGYLAVAVVKKANEGLTWNSLKDKKSCHTAVDRTAGWNIPMGLIVNQTGSCAFDEFFSQSCAPGADPKSRLCALCAGDDQGLDKCVPNSKEKYYGYTGAFRCLAEDVGDVAFVKNDTVWENTNGESTADWAKNLNREDFRLLCLDGTRKPVTEAQSCHLAVAPNHAVVSRSDRAAHVKQVLLHQQALFGKNGKNCPDKFCLFKSETKNLLFNDNTECLAKLGGRPTYEEYLGTEYVTAIANLKKCSTSPLLEACAFLTR
# modifications: glycyrrhizin conjugate 1:4
# B2: Lf-GL (1:15): lactoferrin-glycyrrhizin conjugate, ratio 1:15 (conjugate, UniProt P24627 20-708, looked up)
# Lactotransferrin: APRKNVRWCTISQPEWFKCRRWQWRMKKLGAPSITCVRRAFALECIRAIAEKKADAVTLDGGMVFEAGRDPYKLRPVAAEIYGTKESPQTHYYAVAVVKKGSNFQLDQLQGRKSCHTGLGRSAGWIIPMGILRPYLSWTESLEPLQGAVAKFFSASCVPCIDRQAYPNLCQLCKGEGENQCACSSREPYFGYSGAFKCLQDGAGDVAFVKETTVFENLPEKADRDQYELLCLNNSRAPVDAFKECHLAQVPSHAVVARSVDGKEDLIWKLLSKAQEKFGKNKSRSFQLFGSPPGQRDLLFKDSALGFLRIPSKVDSALYLGSRYLTTLKNLRETAEEVKARYTRVVWCAVGPEEQKKCQQWSQQSGQNVTCATASTTDDCIVLVLKGEADALNLDGGYIYTAGKCGLVPVLAENRKSSKHSSLDCVLRPTEGYLAVAVVKKANEGLTWNSLKDKKSCHTAVDRTAGWNIPMGLIVNQTGSCAFDEFFSQSCAPGADPKSRLCALCAGDDQGLDKCVPNSKEKYYGYTGAFRCLAEDVGDVAFVKNDTVWENTNGESTADWAKNLNREDFRLLCLDGTRKPVTEAQSCHLAVAPNHAVVSRSDRAAHVKQVLLHQQALFGKNGKNCPDKFCLFKSETKNLLFNDNTECLAKLGGRPTYEEYLGTEYVTAIANLKKCSTSPLLEACAFLTR
# modifications: glycyrrhizin conjugate 1:15
# Columns and labels:
# U87MG spheroid = test: GBM spheroid growth inhibition; type: cell-based, human; conditions: GL equivalent 50 µM, day 6 (control 294%)
# Experimental: Fig. S8. GBM spheroid growth inhibition of Lf-GL. To form U87MG spheroid, cells were seeded at density of 1X10^5 cells in concave mold (StemFIT 3D; MICROFIT, Korea). After spheroids were formed, they were transferred to 24-well plate coated with 2% agarose gel. The constructed spheroids were treated with conditioned medium at 2 days interval after a washing step with PBS. (a) Morphology of U87MG spheroid treated with Lf-GL of GL equivalent concentration of 50 µM on day 0, 2, 4 and 6, respectively. Scale bar: 200 µm (b) GBM spheroids time-related volume after treated with Lf-GL of GL equivalent concentration of 50 µM. Data were expressed as mean ± S.E.M (n=9). **P <0.01 versus Control.
# [1] = biological target: T1, human recombinant HMGB1 protein; test: SPR binding affinity against HMGB1; conditions: SPR, HMGB1 immobilized; for Ka, association rate constant / Kd, dissociation rate constant: PBS pH 7.4, room temperature
# Experimental: To confirm the binding affinity of Lf-GL to HMGB1, Surface Plasmon Resonance (SPR) was conducted at WoojungBSC (Korea). The Reichert SR7500DC system (Reichert technologies, NA, USA) and Scrubber2 software (Biologic software, FRA) were used, and a CMDH chip (Cat #: 13,206,066, Reichert technologies) was used for immobilization of the human recombinant HMGB1 protein (Abcam). HMGB1 protein was used as a ligand, and the analytes were HMGB1 antibody (Abcam), GL, Lf and Lf-GL conjugate. The immobilization buffer was S.A. (10 × 10^–3 M, pH 4.5), and the running buffer was PBS (pH 7.4). The flow rate of the analyte was 30 μL min^−1. The association and dissociation time were 3 min each, and measurements were conducted at room temperature. Results are expressed in response units (RU) over time.
# Fig. S5. Binding affinity against HMGB1. Surface Plasmon Resonance (SPR) was conducted at WoojungBSC (Korea). The Reichert SR7500DC system (Reichert technologies, NA, USA) and Scrubber2 software(Biologic software, FRA) were used and the CMDH chip (Cat #: 13206066, Reichert technologies) was used for immobilization of the human recombinant HMGB1 protein (Abcam). HMGB1 protein was used as ligand and analytes were HMGB1 antibody (Abcam), GL, Lf and Lf-GL conjugate. Immobilization buffer was 10 mM S.A. (pH 4.5) and running buffer was 1× PBS. The flow rate of the analyte was 30 μL min^-1. The association and dissociation time were 3 min each and conducted at room temperature. Results are expressed in response units (RU) over time.
Molecule,Spheroid volume increase at day 6 compared to day 0 (U87MG spheroid) [%],"KD, equilibrium dissociation constant (KD = Kd Ka^−1) [1] [nM]","Ka, association rate constant [1]","Kd, dissociation rate constant [1]"
B1,185,595 ± 5,(2.66±0.02)·10^3 M^-1s^-1,0.001584 ± 8e-06 s⁻¹
B2,179,32.3 ± 0.2,(2.99±0.02)·10^4 M^-1s^-1,(9.65±0.04)·10^-4 M^-1s^-1

# Source: publication PMC10200060, “Inhibition of DAMP actions in the tumoral microenvironment using lactoferrin-glycyrrhizin conjugate for glioblastoma therapy” (Biomaterials Research, 2023)
